Experimental data: patent US20130295095A1 (GEORG AUGUST UNIVERSIT T G TTINGEN STIFTUNG FFENTLICHEN …, published 2013)

Target: T1, AβpE3-38 (human, UniProt P05067 674-709, pyroglutamate at position 3 (N-terminal residue))
T1 construct: range 3-38; The range counts on Aβ numbering, not on the APP precursor; also called human AβpE3-38
Experiment: ELISA screening of hybridoma clones
From the text: The AβpE3 oligomere specific antibodies 9D5H6 (IgG2b) and 8C4D2 (IgG1) were generated by immunizing three Balb/c mice with AβpE3-38. After preparation of the lymph nodes cells were fused with the myeloma cell line P3-X63-Ag8. The hybridoma supernatants of mixed clones were screened by ELISA and subcloned. The monoclonal antibodies 9D5 and 8C4 were selected by ELISA against different N-terminal Aβ epitopes. Clones producing signals with AβpE3-38 and AβpE3-42, but no signal with […] were isolated and further characterized. For comparison, Aβ antibodies 4G8 (Aβ epitope 17-24; Covance), W0-2 (Aβ epitope 4-8; The Genetics Company), NT78 (against generic Aβ1-16, Synaptic Systems) and 2-48 (against N-terminal AβpE3, Synaptic Systems; Wirths, O., et al. J Neural Transm 117, 85-96 (2010)) were used. GFAP (rabbit) and IBA1 (rabbit) antisera were from Synaptic Systems and Wako Pure Chemicals respectively. Peptides were purchased from PSL (Heidelberg, Germany), reconstituted as indicated below and immediately frozen until further use.

T1 sequence (P05067 674-709): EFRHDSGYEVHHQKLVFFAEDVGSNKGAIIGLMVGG

B1: PG3-38 9D5H6 (antibody, V domains shown)
VH: QLQQSGAELMKPGASVKISCKATGYTFSSYWIEWVKQRPGHGLEWIGEILPGRGSTHYNEKFKGKATFTADTSSNTAYMQLSSLTSEDSAVYYCARSPITTSDYWGQGTTLTVSS
VL: DVVMTQTPLSLPVSLGDQASISCRSSQSLLHSNGNTYLHWYLQKPGQSPKLLIYKVSNRFSGVPDRFSGSGSGTDFTLKISRVEAEDLGVYFCSQSTHVPLTFGAGT
notes: The printed VH starts at QLQQ and the printed VL ends at FGAGT, so both may be slightly truncated; also called antibody obtainable from hybridoma DSM ACC3056
- binding result: binds
